Source: publication doi:10.1101/2023.02.21.529347v1

System: CC1(C)[C@H]2CC=C(C=O)[C@@H]1C2
Experiment: purified protein
Conditions: co-substrate F420H2; apparent value; fit with substrate inhibition

## MSMEG_2850 (Mycolicibacterium smegmatis MC2 155; Y124M)
  Km: 260 ± 20 µM
  kcat: 0.65 ± 0.018 s⁻¹
